Measured values as given in patent US20240401070A1 (RUTGERS THE STATE UNIVERSITY OF NEW JERSEY, published 2024).

Target: T1, recombinant human coronavirus SARS-CoV-2 Spike Glycoprotein RBD, isolate Wuhan-Hu-1 (Abcam), with C-terminal … (SARS-CoV-2, isolate Wuhan-Hu-1, UniProt P0DTC2 319-541)
T1 construct: also called SARS-COV2 spike protein; COVID-19 spike protein
Assay: ELISA, RBD coated, anti-c-Myc-HRP detection

B1: SARS-CoV-2 VHH-cMYC-12xHis-tag (VH ab8) expressed by E. coli WK6 cells from the pHENC6-VHH plasmid (VHH)
VHH: EVQLVESGGGLVQPGGSLRLSCAASGFTFDDYAMSWVRQAPGKGLEWIGRMYNNGRTSYNPSLKSLVTISRDNSKNTLYLQMNSLRAEDTATYYCARDNLGYRPSENLYGMDVWGQGTTVTVSS
notes: also called bacteria-derived VHH antibody; pHENC6-VHH-c-Myc-12xHis-tag
B1: binds.

B2: SARS-CoV-2 VHH-cMYC-12xHis-tag (VH ab8) expressed by EXPI293F mammalian cells from pCDNA 3.4 VHH (VHH)
VHH: B1 VHH
notes: also called VHH antibodies obtained in mammalian cells; pCDNA 3.4 VHH-c-Myc-12xHis-tag
B2: binds.
